Our source for the Kd values is patent US20130266576A1.

The target of the experiment is von Willebrand factor (vWF) (UniProt P04275). The experiment can be described thus: solid-phase binding assay, vWF coated on wells, FVIII 0.05-6.4 nM, no antibody, detection with biotinylated 1F5; one-site model.

Sequence of B-domain deleted factor VIII (FVIII) (P00451 20-759, stated change not applied): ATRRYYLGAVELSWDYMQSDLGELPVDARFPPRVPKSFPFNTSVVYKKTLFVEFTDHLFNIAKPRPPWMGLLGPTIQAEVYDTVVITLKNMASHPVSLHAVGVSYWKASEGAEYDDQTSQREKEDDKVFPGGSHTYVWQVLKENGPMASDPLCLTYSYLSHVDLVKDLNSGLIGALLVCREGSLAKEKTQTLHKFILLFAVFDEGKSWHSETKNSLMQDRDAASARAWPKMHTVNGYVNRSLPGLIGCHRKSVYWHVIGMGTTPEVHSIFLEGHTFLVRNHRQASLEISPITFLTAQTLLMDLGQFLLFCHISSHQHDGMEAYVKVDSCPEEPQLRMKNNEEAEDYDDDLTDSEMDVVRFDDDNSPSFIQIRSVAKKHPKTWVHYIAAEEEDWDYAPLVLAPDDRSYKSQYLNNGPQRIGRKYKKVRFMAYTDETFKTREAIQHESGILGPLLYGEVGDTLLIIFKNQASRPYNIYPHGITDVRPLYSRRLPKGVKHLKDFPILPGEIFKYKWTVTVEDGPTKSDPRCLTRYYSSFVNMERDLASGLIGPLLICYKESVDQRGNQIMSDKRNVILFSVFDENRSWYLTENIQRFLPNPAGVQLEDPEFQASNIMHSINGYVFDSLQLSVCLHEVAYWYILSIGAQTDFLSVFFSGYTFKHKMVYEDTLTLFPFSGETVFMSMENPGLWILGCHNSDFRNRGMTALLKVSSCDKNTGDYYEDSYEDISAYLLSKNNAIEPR
Sequence of B-domain deleted factor VIII (FVIII) (P00451 1668-2351, stated change not applied): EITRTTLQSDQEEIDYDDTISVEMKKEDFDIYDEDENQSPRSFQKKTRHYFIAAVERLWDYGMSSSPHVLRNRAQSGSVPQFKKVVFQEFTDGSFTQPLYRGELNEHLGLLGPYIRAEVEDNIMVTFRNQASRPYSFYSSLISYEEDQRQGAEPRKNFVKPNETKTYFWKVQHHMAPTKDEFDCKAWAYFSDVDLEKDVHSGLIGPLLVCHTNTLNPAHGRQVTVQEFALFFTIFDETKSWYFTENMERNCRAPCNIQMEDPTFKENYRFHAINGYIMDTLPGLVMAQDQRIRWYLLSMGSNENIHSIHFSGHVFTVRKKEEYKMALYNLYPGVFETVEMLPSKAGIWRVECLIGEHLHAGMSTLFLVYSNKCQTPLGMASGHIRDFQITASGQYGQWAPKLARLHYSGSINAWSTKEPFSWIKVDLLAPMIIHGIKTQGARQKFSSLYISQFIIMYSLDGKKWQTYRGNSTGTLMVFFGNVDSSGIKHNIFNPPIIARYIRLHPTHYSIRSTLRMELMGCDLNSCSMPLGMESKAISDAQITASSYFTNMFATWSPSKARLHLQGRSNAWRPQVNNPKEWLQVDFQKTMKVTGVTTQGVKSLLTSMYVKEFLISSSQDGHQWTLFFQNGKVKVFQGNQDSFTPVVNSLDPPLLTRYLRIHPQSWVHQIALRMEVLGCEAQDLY

Regarding “B-domain deleted factor VIII (FVIII) (from UniProt P00451 20-759; P00451 1668-2351)”, the Kd (usually the constant that tells how readily two partners part at equilibrium) came to 290 pM.
